The source of these data is patent US20060199250A1, “Method for generating a mutant protein which efficiently binds a target molecule” (priority 2005, published 2006).

Assay [1] is described as follows: Yeast two-hybrid ligand dose response assay (growth, OD600) of hERα LBD constructs toward DHB. Format: cell-based. The note with it: in yeast; DHB vs E2. The procedure:
Phenotypic screening of library variants was carried out based on a yeast two-hybrid system employing two constructs, the hERα LBD construct fused to the DNA binding domain of the yeast Gal4 transactivator, and the common mammalian transcriptional coactivator steroid receptor coactivator-1 (SRC-1) fused to the yeast Gal4 transcriptional activation domain. The hERα-SRC-1 interaction, which is elemental in the role of hERα as a transcriptional activator, is strengthened by the binding of agonist ligands to hERα. This system couples the strength of ligand-receptor interaction within host yeast cells to their growth on media lacking histidine and can be applied in either a selection or screening mode (Chen, et al. (2004) supra).
The plasmids from promising mutants based on this ligand response assay were isolated and re-transformed into fresh yeast cells, and the ligand response assay was carried out again to eliminate possible false-positives.
Plasmids, Strains, Reagents and Growth Media. […]
Ligand Dose Response Assay. […] These microtiter plates were incubated at 30° C. for 24 hours, after which cultures were mixed by pipetting, and OD600 readings were taken using a SPECTRAMAX® 340PC plate reader (Molecular Devices, Sunnyvale, Calif.).

A short description of assay [2]: Mammalian cell transactivation (luciferase) of full-length hERα constructs in HEC-1 cells toward DHB. The format is cell-based, human. The procedure: Mammalian cell transactivation profiles for the wild-type hERα and the two best mutants, 4-S and 5-E, were carried out in estrogen receptor-negative human endometrial cancer (HEC-1) cells after cloning the hERα LBD from the chimeric yeast two-hybrid construct into the full-length estrogen receptor construct.
Mammalian Transfection and Luciferase Assay. Methods used for cell culture, transfection, and performance of luciferase assay are known in the art (Muthyala, et al. (2003) J. Med. Chem. 46:1589-1602).

B1: mutant 5-E: hERα mutant: Ala350Met, Leu346Ile, Met388Gln, Gly521Ser, Tyr526Asp, Phe461Leu, Val560Met (protein, UniProt P03372 1-595, looked up, variant A350M L346I M388Q G521S Y526D F461L V560M)
Estrogen receptor: MTMTLHTKASGMALLHQIQGNELEPLNRPQLKIPLERPLGEVYLDSSKPAVYNYPEGAAYEFNAAAAANAQVYGQTGLPYGPGSEAAAFGSNGLGGFPPLNSVSPSPLMLLHPPPQLSPFLQPHGQQVPYYLENEPSGYTVREAGPPAFYRPNSDNRRQGGRERLASTNDKGSMAMESAKETRYCAVCNDYASGYHYGVWSCEGCKAFFKRSIQGHNDYMCPATNQCTIDKNRRKSCQACRLRKCYEVGMMKGGIRKDRRGGRMLKHKRQRDDGEGRGEVGSAGDMRAANLWPSPLMIKRSKKNSLALSLTADQMVSALLDAEPPILYSEYDPTRPFSEASMMGLITNLMDRELVHMINWAKRVPGFVDLTLHDQVHLLECAWLEILQIGLVWRSMEHPGKLLFAPNLLLDRNQGKCVEGMVEIFDMLLATSSRFRMMNLQGEEFVCLKSIILLNSGVYTLLSSTLKSLEEKDHIHRVLDKITDTLIHLMAKAGLTLQQQHQRLAQLLLILSHIRHMSNKSMEHLDSMKCKNVVPLYDLLLEMLDAHRLHAPTSRGGASMEETDQSHLATAGSTSSHSLQKYYITGEAEGFPATV
Take B1: the “selectivity enhancement relative to the fourth round mutant (4-S)” value is recorded as “no selectivity enhancement” in assay [1] and “no selectivity enhancement” in assay [2] (in mammalian cells, DHB vs E2). For the same molecule, the Selectivity entry in assay [2] (HEC-1 cells, EC50 of E2 divided by EC50 of DHB) is “≧2.6 × 10^4”. Moreover, the “Fold Improvement” value in assay [2] (HEC-1 cells, selectivity DHB vs E2 relative to wild-type hERα) is on record as “≧1.4 × 10^8”.
